Source: US20100081795A1 (Bayer, published 2010)

Biological target: T1, purified, native RG1 protein produced in transfected BHK cells (human, UniProt Q9BUD6 27-331)
T1 construct: also called BHK-RG1; nRG1
T1 chain: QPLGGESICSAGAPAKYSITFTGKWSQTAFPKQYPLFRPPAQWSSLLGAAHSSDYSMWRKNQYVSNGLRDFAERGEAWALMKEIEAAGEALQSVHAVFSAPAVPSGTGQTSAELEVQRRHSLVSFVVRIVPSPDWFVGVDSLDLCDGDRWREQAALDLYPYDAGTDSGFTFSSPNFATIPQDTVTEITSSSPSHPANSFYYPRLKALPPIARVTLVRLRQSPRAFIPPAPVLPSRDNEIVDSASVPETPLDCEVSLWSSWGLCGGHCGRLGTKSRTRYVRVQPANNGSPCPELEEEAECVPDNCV
Assay: BIAcore SPR; mab captured on anti-human IgG Fc, soluble BHK-RG1 12.5-400 nM; 1:1 Langmuir fit
Description: Kinetic constants (KD, kₐ and kd) of mab binding to native RG1 protein were determined by BIAcore using a capture format in which soluble, native RG1 protein was bound to immobilized mab on a sensor chip. ImmunoPure rabbit anti-human IgGFc (Pierce, 31142) was covalently immobilized to the Sensor Chip CM5 (Biacore, BR-1000-12) using standard amine coupling methods. 100 ug/ml antibody diluted in 10 mm acetate, pH 4.0 was used at 5 ul/min. HBS-EP (Biacore, BR-1001-88) was used as mobile phase. Unreacted sites were blocked with ethanolamine. Mabs were diluted to 200 nM with HBS and 50 μl was injected per cycle at 10 ul/min. Serial dilutions of BHK-RG1 (12.5-400 nM) were bound to the immobilized mab. Dissociation kinetics were measured immediately after the antigen injection was completed at 20 μl/min for 8 minutes. The surface was regenerated following each cycle using 25 ul of 10 mm glycine, pH 1.8 and then washed with HBS.
Typically, five concentrations and a media control were run. Data were fit to a 1:1 Langmuir model using the software provided by the instrument manufacturer (BIAevaluation 3.0), and kinetic constants were calculated. Equilibrium constants were in the nanomolar range with favorable dissociation rates (10⁻⁴ s⁻¹).

B1: human RG1 monoclonal antibody B (antibody, V domains shown)
VH: EVQLVQSGGGLVHPGGSLRLSCAGSGFTFSSYVMHWLRQAPGKGLEWVSVIGTGGVTHYADSVKGRFTISRDNAKNSLYLQMNSLRAEDMAMYYCARWGYYGSGSYENDAFDIWGQGTMVTVSS
VL: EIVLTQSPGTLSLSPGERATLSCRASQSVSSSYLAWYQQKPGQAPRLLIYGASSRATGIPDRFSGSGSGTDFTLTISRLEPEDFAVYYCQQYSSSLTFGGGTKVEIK
notes: Hybridoma-derived human antibody with a kappa light chain; also called Mab B
In the case of B1, the Kd is reported as 8.4 nM, the koff is reported as 0.00023 s⁻¹ and the kon is reported as 29000 M⁻¹ s⁻¹.
